Laboratory results reported in the supplement of paper PMC9170038.

System: MS2 coat protein
Assay: apparent KD of MS2 coat protein; designed switch direction (-1 OFF switch, 1 ON switch): 1; higher = weaker reporter binding
Summary of the method: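 The reported apparent KD is a per-design median over clusters, from curve fits of normalised cluster fluorescence. Protein titrations used SNAP-549-labelled MS2 coat protein, doubled from 0.7 or 1.5 nM to 3 µM, in Tris-HCl pH 7.5 buffer with KCl, MgCl2, BSA, DTT, tRNA and Tween-20, with no input, 200 uM small-molecule ligand, or an oligonucleotide input. The RNA switches were transcribed on Illumina chips by stalled E. coli RNA polymerase.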

[1] = input ligand: microRNA oligo, concentration not stated
[2] = Eterna round: R95, input ligand: FMN 200 uM
[3] = Eterna round: R95, input ligand: microRNA oligo, concentration not stated
[4] = Eterna round: R95, input ligand: none

Sequence	apparent KD of MS2 coat protein (input ligand: FMN 200 uM)	apparent KD of MS2 coat protein [1]	apparent KD of MS2 coat protein (input ligand: none)	apparent KD of MS2 coat protein [2]	apparent KD of MS2 coat protein [3]	apparent KD of MS2 coat protein [4]
AAUUGUUCCUGAGGAUAUCAGUAGUUUGCUUUUUGAGAAGGCAGUACAUGAGGAUCACCCAUGUUGUGGUUUGAUAGAAUGAUA [JR_SSNG1_Sub005] (Eterna round: R96, puzzle: Same State NG 1)	184 nM	101 nM	180 nM	–	–	–
AAUUUAAUACAUGAGGAUCACCCAUGUAAAUUAAUUAAGAUCUAGGAUAUCAGCUCGAUUAGAGCUGAGAAGGAGAUCACAUGU [SSNG3/19-B2] (Eterna round: R96, puzzle: Same State NG 3)	–	12 nM	–	–	–	–
AAUUUAAUACAUGAGGAUCACCCAUGUAAUACUAGUAAGAUCUAGGAUAUCAGCUCGUUUAGAGCUGAGAAGGAGAUCACAUGU [SSNG3/19-C3] (Eterna round: R96, puzzle: Same State NG 3)	–	62.1 nM	–	–	–	–
ACAAGCUUUUCUGCAUUGAAAGGUUGGUUACAUGAGGAUCACCCAUGUUUUUAUGAAAAUAAUGCUCCUCGUCUUAU [JR_SHM208A_Sub093] (puzzle: Sensor for hsa-mir-208a)	–	–	–	264 nM	19.8 nM	252 nM
ACAAGCUUUUUAGGAGAGAAAGGUGGGAAACAUGAGGAUCACCCAUGUAUGGUAGUGAAUAGUGGAACUCGUCUUAU [JR_SHM208A_Sub081] (puzzle: Sensor for hsa-mir-208a)	–	–	–	400 nM	104 nM	462 nM
ACAAGCUUUUUAGGAGAGAAAGGUGGGAUACAUGAGGAUCACCCAUGUAUGGUAGUUAAUAGUGGACCUCGUCUUAU [JR_SHM208A_Sub082] (puzzle: Sensor for hsa-mir-208a)	–	–	–	46.5 nM	21.7 nM	64.1 nM
ACAAGCUUUUUGCUCAUCUUAUGUCCGAAACAUGAGGAUCACCCAUGUAUAGAUUAUGUGUUGUUUUUGAUACAAGA [JR_SHM208A_Sub064] (puzzle: Sensor for hsa-mir-208a)	–	–	–	32.1 nM	24.9 nM	33.1 nM
ACAAGCUUUUUUGUAGUGAAAGGUGGGAUACAUGAGGAUCACCCAUGUAUUGUUGUUAAUAUUUGUCCUCGUCUUAU [JR_SHM208A_Sub085] (puzzle: Sensor for hsa-mir-208a)	–	–	–	31.8 nM	13.9 nM	36.3 nM
ACAUGAAAUUGAGGAUAUUUUGUACCUACAUGUGACAUGAGGAUCACCCAUGUGGUAAGUAUGAGAAAGAAGGCAAAGAUAUGU [Equivalence 11 - Jieux - Same State NG 2] (Eterna round: R96, puzzle: Same State NG 2)	26.6 nM	43.3 nM	51 nM	–	–	–
ACAUGAAAUUUAGGAUAUUUUGUACCUACAUGUGACAUGAGGAUCACCCAUGUGGUAAGUAUAAGAAAGAAGGAAAAGAUAUGU [Equivalence 8 - Jieux - Same State NG 2] (Eterna round: R96, puzzle: Same State NG 2)	61.1 nM	41.2 nM	64.9 nM	–	–	–
ACAUGAGAAAGAGGAUAUUUUGUACCUACAUGUGACAUGAGGAUCACCCAUGUGGUAAGUAUGAGAAAGAAGGCUUAGAUAUGU [Equivalence 13 - Jieux - Same State NG 2] (Eterna round: R96, puzzle: Same State NG 2)	20.6 nM	43.1 nM	61.7 nM	–	–	–
ACAUGAGAAUGAGGAUAUGUUGUACCUACAUGUGACAUGAGGAUCACCCAUGUGGUAAGUAUGAUACAGAAGGCAUAGAUAUGU [Equivalance 62 - Jieux - Same State NG 2] (Eterna round: R96, puzzle: Same State NG 2)	18.9 nM	18 nM	32.2 nM	–	–	–
ACAUGAGAAUUAGGAUAUAUAGUACCUACAUGUGACAUGAGGAUCACCCAUGUGGUAAGUAUGACAUAGAAGGAAUAGAUAUGU [Equivalance 97 - Jieux - Same State NG 2] (Eterna round: R96, puzzle: Same State NG 2)	66.5 nM	42.9 nM	56.8 nM	–	–	–
ACAUGAGACGGAGGAUAUUUUGUACCUACAUGUGACAUGAGGAUCACCCAUGUGGUAAGUAUGAGAAAGAAGGCCGAGAUAUGU [Equivalence 19 - Jieux - Same State NG 2] (Eterna round: R96, puzzle: Same State NG 2)	14.2 nM	17.7 nM	29.6 nM	–	–	–
ACAUGAGACUAAGGAUAUGGUGUACCUACAUGUGACAUGAGGAUCACCCAUGUGGUAAGUAUGACUCAGAAGGUAGAGAUAUGU [Equivalance 75 - Jieux - Same State NG 2] (Eterna round: R96, puzzle: Same State NG 2)	37.9 nM	280 nM	436 nM	–	–	–
ACAUGAGACUCAGGAUAUGGUGUACCUACAUGUGACAUGAGGAUCACCCAUGUGGUAAGUAUGACUCAGAAGGGAGAGAUAUGU [Equivalance 76 - Jieux - Same State NG 2] (Eterna round: R96, puzzle: Same State NG 2)	37.4 nM	116 nM	171 nM	–	–	–
ACAUGAGACUUAGGAUAUGUUGUACCUACAUGUGACAUGAGGAUCACCCAUGUGGUAAGUAUGAGACAGAAGGAAGAGAUAUGU [Equivalence 29 - Jieux - Same State NG 2] (Eterna round: R96, puzzle: Same State NG 2)	7.53 nM	26.3 nM	54.7 nM	–	–	–
ACAUGAGACUUAGGAUAUGUUGUACCUACAUGUGACAUGAGGAUCACCCAUGUGGUAAGUAUGAGGCAGAAGGAAGAGAUAUGU [Equivalence 39 - Jieux - Same State NG 2] (Eterna round: R96, puzzle: Same State NG 2)	23.5 nM	45.9 nM	73.1 nM	–	–	–
ACAUGAGAGAUAGGAUAUCAUGUACCUACAUGUGACAUGAGGAUCACCCAUGUGGUAAGUAUGAGUGAGAAGGAUCAGAUAUGU [Equivalence 35 - Jieux - Same State NG 2] (Eterna round: R96, puzzle: Same State NG 2)	47.9 nM	272 nM	467 nM	–	–	–
ACAUGAGAGAUAGGAUAUCUUGUACCUACAUGUGACAUGAGGAUCACCCAUGUGGUAAGUAUGAGGGAGAAGGGUCAGAUAUGU [Equivalence 45 - Jieux - Same State NG 2] (Eterna round: R96, puzzle: Same State NG 2)	–	42.7 nM	–	–	–	–
ACAUGAGAGAUAGGAUAUGCUGUACCUACAUGUGACAUGAGGAUCACCCAUGUGGUAAGUAUGAGGCAGAAGGAUCAGAUAUGU [Equivalence 49 - Jieux - Same State NG 2] (Eterna round: R96, puzzle: Same State NG 2)	13.6 nM	17.3 nM	23.2 nM	–	–	–
ACAUGAGAUCGAGGAUAUUUUGUACCUACAUGUGACAUGAGGAUCACCCAUGUGGUAAGUAUGAGAAAGAAGGCGAAGAUAUGU [Equivalence 16 - Jieux - Same State NG 2] (Eterna round: R96, puzzle: Same State NG 2)	–	29.3 nM	–	–	–	–
